In patent US20070099822A1, “Regulation of tissue mineralization and phosphate metabolism by asarm peptides” (priority 2003, published 2007):
“Also recorded” adds a separate entry of the source.

How the values were obtained:
[1] = molecular target: T1, full-length insect-expressed human-MEPE (Hu-MEPE) (human, UniProt Q9NQ76 18-525); assay: SPR (Biacore 3000), MEPE immobilized on CM5 at 3500 RU, secPHEX analyte, HBS-P-Zn (2 mM ZnCl2)
T1 construct: also called recombinant Hu-MEPE; Matrix Extracellular Phosphoglycoprotein
T1 sequence: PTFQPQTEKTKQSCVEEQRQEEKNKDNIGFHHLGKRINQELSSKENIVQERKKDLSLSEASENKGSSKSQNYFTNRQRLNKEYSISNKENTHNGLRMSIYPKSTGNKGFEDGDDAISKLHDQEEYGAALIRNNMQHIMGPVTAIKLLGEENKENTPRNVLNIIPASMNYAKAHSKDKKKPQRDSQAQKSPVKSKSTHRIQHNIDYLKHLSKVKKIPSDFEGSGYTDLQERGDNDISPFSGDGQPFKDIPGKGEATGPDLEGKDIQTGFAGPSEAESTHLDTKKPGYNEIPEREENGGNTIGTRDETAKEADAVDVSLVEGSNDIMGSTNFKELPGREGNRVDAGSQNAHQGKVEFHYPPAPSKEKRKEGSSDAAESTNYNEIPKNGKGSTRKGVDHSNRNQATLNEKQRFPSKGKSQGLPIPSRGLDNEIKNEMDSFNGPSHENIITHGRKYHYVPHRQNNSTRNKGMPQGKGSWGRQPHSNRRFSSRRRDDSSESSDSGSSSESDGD
Experimental: The experiments were performed at 25° C. using Biacore (Piscataway, N.J.) buffer (10 mM HEPES pH 7.4, 150 mM NaCl, 0.005% surfactant P20) supplemented with 2 mM ZnCl₂ (HBS-P-Zn) or without ZnCl₂ (HBS-P) as indicated. Injected samples also contained 2 mg/mL carboxymethyl-dextran to reduce non-specific association with the dextran matrix of the chip and a flow rate of 5 μL/min was used. The surfaces of research grade CM5 chips were activated by a 6 min injection of a solution containing 0.2M N-ethyl-N9-(dimethylaminopropyl) carbodiimide and 0.05M N-hydroxy-succinimide. MEPE, PHEX and IgG were immobilized on the same chip (ligands) in different individual flow-cells. Each chip contains four separate flow-cells, one cell was left blank as a negative control. The experiments were repeated on two different chips with 3500 RU (response-units) and 6000 RU of immobilized proteins respectively. The response unit or RU is a measure of surface charge density-oscillation and surface-plasmon-positron generation as detected by changes in incident refractive-index monitored by the Biacore optical unit. Specifically, 1000 RU unit equals a change of approximately 1 ng/mm² in surface protein concentration on the chip surface. After immobilization, each surface was blocked by a 6 min injection of 1 M ethanolamine at pH 8.5. […]

chip-immobilized MEPE = molecular target: T2, chip-immobilized MEPE (Homo sapiens, UniProt Q9NQ76); assay: Surface plasmon resonance, secPHEX analyte on chip-immobilized MEPE; type: binding
T2 construct: Purified protein contained N-terminal amino acid residues APTFQ confirming cleavage of predicted nascent-MEPE signal-peptide; made in house; host or cells: Spodoptera frugiperda (sf9) insect cells, baculovirus
T2 sequence (Q9NQ76 18-525): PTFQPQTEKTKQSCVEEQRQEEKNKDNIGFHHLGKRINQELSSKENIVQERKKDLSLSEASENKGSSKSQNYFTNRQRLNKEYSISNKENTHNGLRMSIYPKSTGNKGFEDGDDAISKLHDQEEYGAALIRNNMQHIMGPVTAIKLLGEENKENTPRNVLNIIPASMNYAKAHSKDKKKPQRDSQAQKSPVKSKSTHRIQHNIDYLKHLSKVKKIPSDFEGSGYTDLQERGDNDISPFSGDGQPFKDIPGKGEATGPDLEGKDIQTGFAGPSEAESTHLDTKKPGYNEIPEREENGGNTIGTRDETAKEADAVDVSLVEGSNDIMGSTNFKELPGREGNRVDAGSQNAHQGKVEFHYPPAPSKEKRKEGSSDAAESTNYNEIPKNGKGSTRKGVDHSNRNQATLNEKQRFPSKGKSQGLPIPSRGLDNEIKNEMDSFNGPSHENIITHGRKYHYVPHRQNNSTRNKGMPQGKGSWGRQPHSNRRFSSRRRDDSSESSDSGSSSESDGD
Text: Surface Plasmon Resonance (SPR). A Biacore 3000 SPR instrument (Biacore, Piscataway, N.J.) in conjunction with CM5 research grade chips were used to conduct the Surface Plasmon Resonance (SPR) experiments, as previously described (Morgan, et al., A conserved clathrin assembly motif essential for synaptic vesicle endocytosis, J Neurosci 20(23):8667-8676, 2000; Morgan, et al., Uncoating of clathrin-coated vesicles in presynaptic terminals: Roles for Hsc70 and auxilin, Neuron 32(2):289-300, 200 1; Morgan, et al., Eps15 homology domain-NPF motif interactions regulate clathrin coat assembly during synaptic vesicle recycling, J Biol Chem 278(35):33583-33592, 2003). The experiments were performed at 25° C. using Biacore (Piscataway, N.J.) buffer (10 mM HEPES pH 7.4, 150 mM NaCl, 0.005% surfactant P20) supplemented with 2 mM ZnCl2 (HBS-P-Zn) or without ZnCl2 (HBS-P) as indicated. Injected samples also contained 2 mg/mL carboxymethyl-dextran to reduce non-specific association with the dextran matrix of the chip and a flow rate of 5 μL/min was used. The surfaces of research grade CM5 chips were activated by a 6 min injection of a solution containing 0.2M N-ethyl-N9-(dimethylaminopropyl) carbodiimide and 0.05M N-hydroxy-succinimide. MEPE, PHEX and IgG were immobilized on the same chip (ligands) in different individual flow-cells. Each chip contains four separate flow-cells, one cell was left blank as a negative control. The experiments were repeated on two different chips with 3500 RU (response-units) and 6000 RU of immobilized proteins respectively. The response unit or RU is a measure of surface charge density-oscillation and surface-plasmon-positron generation as detected by changes in incident refractive-index monitored by the Biacore optical unit. Specifically, 1000 RU unit equals a change of approximately 1 ng/mm^2 in surface protein concentration on the chip surface. After immobilization, each surface was blocked by a 6 min injection of 1 M ethanolamine at pH 8.5. […]

chip-immobilized secPHEX = molecular target: T3, chip-immobilized secPHEX (Homo sapiens, UniProt P78562); assay: Surface plasmon resonance, secPHEX analyte on immobilized secPHEX; type: binding; conditions: 2 uM secPHEX
T3 construct: to generate a soluble, secreted form of PHEX; made in house; gift of Crine and Boileau, University of Montreal
T3 sequence (P78562 46-749 limits assumed): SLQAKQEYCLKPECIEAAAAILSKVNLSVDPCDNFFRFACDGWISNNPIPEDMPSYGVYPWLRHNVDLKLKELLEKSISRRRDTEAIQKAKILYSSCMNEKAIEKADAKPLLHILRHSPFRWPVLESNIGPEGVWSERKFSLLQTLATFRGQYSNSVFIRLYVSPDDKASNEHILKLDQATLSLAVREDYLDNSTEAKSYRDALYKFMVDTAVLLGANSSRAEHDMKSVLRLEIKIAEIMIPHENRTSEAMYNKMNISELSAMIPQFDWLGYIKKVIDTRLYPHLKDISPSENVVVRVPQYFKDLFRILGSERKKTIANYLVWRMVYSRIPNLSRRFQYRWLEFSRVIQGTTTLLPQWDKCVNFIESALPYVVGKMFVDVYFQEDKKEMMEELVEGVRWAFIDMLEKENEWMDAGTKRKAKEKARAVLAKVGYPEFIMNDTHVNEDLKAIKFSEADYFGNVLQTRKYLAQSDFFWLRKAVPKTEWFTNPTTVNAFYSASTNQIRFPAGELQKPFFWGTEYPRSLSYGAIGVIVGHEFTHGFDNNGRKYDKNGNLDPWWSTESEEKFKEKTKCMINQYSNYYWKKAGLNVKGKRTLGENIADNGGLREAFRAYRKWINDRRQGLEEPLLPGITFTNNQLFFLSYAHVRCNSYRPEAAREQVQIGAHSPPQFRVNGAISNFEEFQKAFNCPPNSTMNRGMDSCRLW
Text: (§1) Surface Plasmon Resonance (SPR). A Biacore 3000 SPR instrument (Biacore, Piscataway, N.J.) in conjunction with CM5 research grade chips were used to conduct the Surface Plasmon Resonance (SPR) experiments, as previously described (Morgan, et al., A conserved clathrin assembly motif essential for synaptic vesicle endocytosis, J Neurosci 20(23):8667-8676, 2000; Morgan, et al., Uncoating of clathrin-coated vesicles in presynaptic terminals: Roles for Hsc70 and auxilin, Neuron 32(2):289-300, 200 1; Morgan, et al., Eps15 homology domain-NPF motif interactions regulate clathrin coat assembly during synaptic vesicle recycling, J Biol Chem 278(35):33583-33592, 2003). The experiments were performed at 25° C. using Biacore (Piscataway, N.J.) buffer (10 mM HEPES pH 7.4, 150 mM NaCl, 0.005% surfactant P20) supplemented with 2 mM ZnCl2 (HBS-P-Zn) or without ZnCl2 (HBS-P) as indicated. Injected samples also contained 2 mg/mL carboxymethyl-dextran to reduce non-specific association with the dextran matrix of the chip and a flow rate of 5 μL/min was used. […] The response unit or RU is a measure of surface charge density-oscillation and surface-plasmon-positron generation as detected by changes in incident refractive-index monitored by the Biacore optical unit. […]

IgG = assay: Surface plasmon resonance, secPHEX analyte on immobilized IgG; type: binding; conditions: same chip
Text: as §1

- EC50 [1]: 553 nM
- binding of secPHEX to MEPE in buffer lacking ZnCl2 (chip-immobilized MEPE; HBS-P, secPHEX up to 10 uM): No interaction
- binding of secPHEX to MEPE (chip-immobilized MEPE; HBS-P-Zn buffer, saturation at 10 uM secPHEX): dose dependent
- Bmax of secPHEX binding to immobilized MEPE (chip-immobilized MEPE; MEPE 3500 RU): 680 RU
B1: mammalian expressed human recombinant secreted PHEX (secPHEX) (enzyme, UniProt P78562 46-749, looked up)
chain: SLQAKQEYCLKPECIEAAAAILSKVNLSVDPCDNFFRFACDGWISNNPIPEDMPSYGVYPWLRHNVDLKLKELLEKSISRRRDTEAIQKAKILYSSCMNEKAIEKADAKPLLHILRHSPFRWPVLESNIGPEGVWSERKFSLLQTLATFRGQYSNSVFIRLYVSPDDKASNEHILKLDQATLSLAVREDYLDNSTEAKSYRDALYKFMVDTAVLLGANSSRAEHDMKSVLRLEIKIAEIMIPHENRTSEAMYNKMNISELSAMIPQFDWLGYIKKVIDTRLYPHLKDISPSENVVVRVPQYFKDLFRILGSERKKTIANYLVWRMVYSRIPNLSRRFQYRWLEFSRVIQGTTTLLPQWDKCVNFIESALPYVVGKMFVDVYFQEDKKEMMEELVEGVRWAFIDMLEKENEWMDAGTKRKAKEKARAVLAKVGYPEFIMNDTHVNEDLKAIKFSEADYFGNVLQTRKYLAQSDFFWLRKAVPKTEWFTNPTTVNAFYSASTNQIRFPAGELQKPFFWGTEYPRSLSYGAIGVIVGHEFTHGFDNNGRKYDKNGNLDPWWSTESEEKFKEKTKCMINQYSNYYWKKAGLNVKGKRTLGENIADNGGLREAFRAYRKWINDRRQGLEEPLLPGITFTNNQLFFLSYAHVRCNSYRPEAAREQVQIGAHSPPQFRVNGAISNFEEFQKAFNCPPNSTMNRGMDSCRLW
notes: Gift from Crine and Boileau; Used as SPR analyte and also immobilized as ligand; also called soluble mammalian expressed PHEX
- interaction of secPHEX analyte with chip-immobilized secPHEX (chip-immobilized secPHEX): very low-level barely-detectable autologous-interaction
- interaction of secPHEX with control IgG (IgG): no significant signals; also recorded: No interaction
